{"source": "patent US10704056B2", "about": "“Constitutively active ABA receptor mutants” (The Regents of the University of California, priority 2011, dated 2020)", "molecules": {"B1": {"name": "PYL2^CA3: PYL2 mutant (H65P, V87F, F165V); expressed in plants as 35S-driven GFP fusion (protein)", "chain": "HHHHHHMSSSPAVKGLTDEEQKTLEPVIKTYHQFEPDPTTCTSLITQRIHAPASVVWPLIRRFDNPERYKPFVKRCRLISGDGDVGSVREVTFISGLPASTSTERLEFVDDDHRVLSFRVVGGEHRLKNYKSVTSVNEFLNQDSGKVYTVVLESYTVDIPEGNTEEDTKMVVDTVVKLNLQKLGVAATSAPMHDDE"}}, "tested_on": "ABA-regulated genes Em6, LEA and Rd29b", "experiment": "qRT-PCR of ABA-regulated genes in imbibed seeds", "type": "in vivo, Arabidopsis", "details": "seeds imbibed 32 hours, no ABA treatment; 35S-driven lines", "description": "To investigate if other ABA responses are affected in the PYL2^CA3 lines, we profiled the expression levels of several ABA-regulated genes using quantitative RT-PCR (qRT-PCR). For these experiments, seeds of Col, 35S::PYL2, and two independent 35S:: PYL2^CA3 transgenic lines were imbibed for 32 hours in either water or 5 μM ABA at room temperature under continuous illumination, after which RNA was isolated using Concert™ Plant RNA Reagent and utilized in qRT-PCR reactions using primers for the ABA-regulated genes Em6 (At2g40170), LEA (At2g21490), and Rd29b (At5g52300). Biological duplicates with triple technical replicate measurements were conducted and gene expression levels were determined. […] Real-time quantitative PCR analysis was performed by ΔΔCt method of relative quantification. […]\nWild type or transgenic lines were imbibed for 32 hours in either water or 5 μM ABA at room temperature under continuous illumination, after which RNA was isolated using Concert™ Plant RNA Reagent followed by LiCl2 precipitation and DNase treated using RNase-free DNAse (Ambion). […] Biological duplicates with triple technical replicate measurements were conducted and gene expression levels were determined. […] Real-time quantitative PCR analysis was performed by ΔΔCt method of relative quantification. […]", "data": [{"molecule": "B1", "values": [{"measurement": "levels of ABA-regulated genes (Em6, LEA, Rd29b)", "result": "elevated levels of ABA-regulated genes"}]}]}
